Reference: patent US20110195027A1 (KOREA RESEARCH INSTITUTE OF BIOSCIENCE AND BIOTECHNOLOGY, published 2011)
Substitutions are numbered along the chain they refer to.

What was measured:
[1] = target: T1, p-Myc-His CD9-ECL2 wild type (human); assay: ELISA: antibody coated, supernatant, anti-His-HRP
T1 chain: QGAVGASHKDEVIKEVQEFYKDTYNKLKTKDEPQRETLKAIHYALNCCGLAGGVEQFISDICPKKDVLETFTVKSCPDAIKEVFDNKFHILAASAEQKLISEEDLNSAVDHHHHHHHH
Procedure: (§1) Each supernatant was loaded by 24 ul at 100 V for 2 hours, and then transferred to NC membrane (Millipore Cat. No. HATF00010) at 85V for 2 hours. The membrane finished with transfer was blocked by using blocking buffer (4% skim milk in TEST) at room temperature for 1 hour. A-His-HRP (Sigma, Cat. No. A7058) was diluted with blocking buffer (4% skim milk in TBST) at 1:4000 and binding was induced at room temperature for 1 hour. The membrane was washed with TBST 5 times every 10 minutes, followed by development (Intron, Cat. No. 12145). Expression of each mutant was confirmed by Western blotting (FIG. 15). Based on that, epitopes of ALB6 and 10E4 were confirmed by ELISA. A 96-well immuno-plate (NUNC) was coated with coating buffer comprising ALB6 and 10E4 (100 ng/100 ul/well each) at 4° C. for 16 hours, followed by blocking with 4% PBST (skim milk dissolved in 1× PBS) for 2 hours. Each well of the 96-well immuno-plate was washed three times with 0.2 ml of PBST (PBS-tween20 (0.05%)). From the supernatants obtained on day 5 confirmed to contain a large number of mutants confirmed by Western blotting, wild type, M1 and M4 supernatants were selected. 100 ul of the selected supernatant was added to each well of the plate, followed by reaction for 2 hours. The plate was washed again. The secondary antibody anti-His-HRP (Sigma A7058) was diluted at 1:1000, followed by reaction at room temperature for 30 minutes. Washing was performed three times by the same manner as described above. OPD tablet (Sigma 8787-TAB) was added to PC buffer [C₆H₈O₇H₂O (Sigma, C0706) 5.1 g, Na₂HPO₄ (Sigma, 57907 7.3 g)] to make substrate solution, which was added to each well by 100 ul/well, followed by color development for 10 minutes. Color development was terminated by adding 2 M H₂SO₄ solution. Then, OD₄₉₀ was measured by using ELISA reader (Molecular Device).

CD9-ECL2 mutant M1 = target: T2, CD9-ECL2 mutant M1 (human, with rat residues, UniProt P21926 112-195); assay: ELISA: antibody coated, supernatant, anti-His-HRP
T2 construct: also called mutation 1; not shown: Myc and 8x His tag of the pYK His only vector
T2 chain: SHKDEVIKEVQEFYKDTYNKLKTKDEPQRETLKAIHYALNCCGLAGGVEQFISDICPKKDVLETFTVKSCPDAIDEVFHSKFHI
Procedure: as §1

CD9-ECL2 mutant M4 = target: T3, CD9-ECL2 mutant M4 (human, with rat residues, UniProt P21926 112-195); assay: ELISA: antibody coated, supernatant, anti-His-HRP
T3 construct: also called mutation 4; not shown: Myc and 8x His tag of the pYK His only vector
T3 chain: T2 chain with V10L, N19Q, K22R, T23N, D75K, H79D, S80N
Procedure: as §1

[2] = target: T4, CD9-ECL2(CD9 extracellular domain 2)-Fc antigen (human); assay: phage ELISA; CD9 OD/a-myc OD
T4 construct: also called CD9-ECL2-Fc; CD9-EC2-Fc

[3] = target: T4, CD9-ECL2(CD9 extracellular domain 2)-Fc …; assay: phage ELISA; CD9 OD/a-myc OD (repeats Table 2)
[4] = target: T4, CD9-ECL2(CD9 extracellular domain 2)-Fc …; assay: phage ELISA; CD9 OD/a-myc OD; remark: listed apart in the source
Procedure: (§2) A 96-well immuno-plate was coated with CD9-EC2-Fc antigen (0.1 μg/well) at 4° C. for 16 hours, followed by blocking with skim milk dissolved in PBS (4%). Each well of the 96-well immuno-plate was washed with 0.2 ml of PBS-tween20 (0.05%). 100 ul of the 3rd-4th panning monoclonal scFV-phage was added to each well, followed by reaction at room temperature for 2 hours. Each well was washed four times with 0.2 ml of PBS-tween20 (0.05%). The secondary antibody anti-M13-HRP was diluted at 1:2000, followed by reaction at room temperature for 1 hour. The plate was washed with 0.2 ml of PBS-tween20 (0.05%), followed by color development. OD₄₉₀ was measured.
Target sequence in this assay (chain, as listed by the source limits assumed): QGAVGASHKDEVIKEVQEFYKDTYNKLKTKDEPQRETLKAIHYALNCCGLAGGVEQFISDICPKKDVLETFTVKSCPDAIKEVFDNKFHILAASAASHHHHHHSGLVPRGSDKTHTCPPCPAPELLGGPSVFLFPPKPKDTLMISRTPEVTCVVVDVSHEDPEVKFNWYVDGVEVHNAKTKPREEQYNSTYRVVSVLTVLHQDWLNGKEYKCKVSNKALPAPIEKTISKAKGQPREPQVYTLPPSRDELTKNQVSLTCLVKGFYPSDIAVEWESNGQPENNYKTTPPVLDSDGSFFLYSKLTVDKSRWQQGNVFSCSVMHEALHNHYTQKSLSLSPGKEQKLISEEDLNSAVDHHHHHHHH

[5] = target: T4, CD9-ECL2(CD9 extracellular domain 2)-Fc …; assay: phage ELISA; CD9 OD/a-myc OD (repeats Table 3)
Procedure: as §2
Target sequence in this assay (chain, as listed by the source limits assumed): as above

Fc = target: T5, Fc; assay: phage ELISA
T5 construct: Control antigen of the phage ELISA
Procedure: as §2

[6] = target: T4, CD9-ECL2(CD9 extracellular domain 2)-Fc …; assay: phage ELISA
Procedure: as §2
Target sequence in this assay (chain, as listed by the source limits assumed): as above

B1: 10E4 whole IgG (antibody, V domains shown)
VH: MAQVQLVQSGGGLVQPGRSLRLSCAASGFTFDDFAMHWVRQAPGKGLEWVAGISWNSGDIRYADSVRGRFTISRDNAKNSLFLQMNSLRAEDTAVYYCARSPVGTTYFDYWGQGALITVSS
VL: DIQMTQSPSSLSASVGDRVTITCRASQGISSYLAWYQQKPGKAPKLLIYAASTLQSEVPSRFSGSGSGTDFTLTISSLQPEDFATYYCQQLNIFPLTFGGTKVDIKR
notes: Whole IgG made from the 10E4 phage clone in pNATAB H and pNATAB L vectors; the heavy chain PCR primer starts at QVQLVQS; also called 10E4 human antibody; anti-CD9(10E4) IgG
In the case of B1, the OD490 [1] is reported as 0.375, the OD490 (CD9-ECL2 mutant M1) is reported as 0.084 and the OD490 (CD9-ECL2 mutant M4) is reported as 0.398.

B2: CD9 5G4 scFv monoclonal phage antibody (scFv, V domains shown)
VH: QVQLVSSGAEVKKPGASVKLSCKASGYTFSSYWMHWVRQAPGQRLEWMGEINPGNGHTNYNEKFKSRVTITVDKSASTAYMELSSLRSEDTAVYYCAREDDIEDAFDFWGQGTMVTVSS
VL: DIQMTQSPSSVSASVGDRVTITCRASQSISSWLAWYQQKPGKAPKLLIYGASNLQSGVPSRFSGSGSGTDFTLTISSLHPEDFATYFCHKTDSFPLTFGGGTKVEIK
B2 gave a Ratio [2] of 1.04 and a Ratio [3] of 1.04.

B3: CD9 3F3 scFv monoclonal phage antibody (scFv, V domains shown, not shown: small tags and cut ends)
VH: QMQLVQSGAEVKKPGASVKLSCKASGYTFSSYWMHWVRQAPGQRLEWMGEINPGNGHTNYNEKFKSRVTITVDKSASTAYMELSSLRSEDTAVYYCGQDNSPPRIWGQGTLITVSS
VL: QSALTQPASVSGSPGQSITISCTGTSSDVGGYNHVSWYQQHPGKAPKLLIYDVSNRPSGVSGRFSGSKSGNTASLTISGLQAEDEANYYCGSYTSSSTFEVFGTGTKVTVL
With B3 the Ratio [4] was 0.918, the Ratio [5] was 0.918 and the OD490 (Fc) was 0.0394. It also gave an OD490 [6] of 0.961.

B4: CD9 11G scFv monoclonal phage antibody (scFv, V domains shown)
VH: B3 VH with M2V, F29S, I112V
VL: DIQMTQSPSTLSASVGDRVTITCRASQTIGNLAWFQQKPGKAPKLLIYKASSLESGVPSRFSGSGSGTEFTLTISSLQPDDFATYYCQQYSDYWTFGQGTKVEIK
notes: also called 11G3
Binder B4 has a Ratio [4] of 1.23, a Ratio [5] of 1.23 and an OD490 (Fc) of 0.0441. For the same binder, the OD490 [6] was 2.24.

B5: CD9 8A scFv monoclonal phage antibody (scFv, V domains shown)
VH: QVQLVQSGAEVKKPGASVKLSCKASGYTFSSYWMHWVRQAPGQRLEWMGEINPGNGHTNYNEKFKSRVTITVGKSASTAYMELSSLRSEDTAVYYCAREGVSAAGGLDHWGQGTQITVSS
VL: DIQMTQSPSSLSVSTGARVTITCRASQGISNYLAWYQQKPGKAPKLLIYAASTLQSGVPSRFSGSGSGTDFTLTISSLQPEDFATYYCQQLNSYPLTFGGGTKVEIK
notes: also called 8A3
B5 showed a Ratio [4] of 0.73, a Ratio [5] of 0.73 and an OD490 (Fc) of 0.088. It also gave an OD490 [6] of 1.61.

B6: CD9 12F scFv monoclonal phage antibody (scFv, V domains shown)
VH: QVQLVQSGAEVKKPGASVKLSCKASGYTFSSYWMHWVRQAPGQRLEWMGEINPGNGHTNYNEKFKSRVTITVDKSASTAYMELSSLRSEDTAVYYCARELEEGAFDIWGQGTMVTVSS
VL: B5 VL with S12P, V13A, T15V, A17D, N31S, L91Y, N92D, Y94V
notes: also called 12F3
Work on B6 yielded a Ratio [4] of 0.669, a Ratio [5] of 0.668 and an OD490 (Fc) of 0.124. The OD490 [6] was 1.16.
